Kd data for one substance are collected here from paper PMC3776355.

The test concerns the target Ero1-α(WT), recombinant (human) (UniProt Q96HE7). Nature of the test: SPR. A general note: In SPR one partner is held on a chip, and binding of the other changes the refractive index at the surface.

As usually defined, the Kd is the equilibrium constant for the complex coming apart.

Chain of UniProt Q96HE7 (Q96HE7 24-468): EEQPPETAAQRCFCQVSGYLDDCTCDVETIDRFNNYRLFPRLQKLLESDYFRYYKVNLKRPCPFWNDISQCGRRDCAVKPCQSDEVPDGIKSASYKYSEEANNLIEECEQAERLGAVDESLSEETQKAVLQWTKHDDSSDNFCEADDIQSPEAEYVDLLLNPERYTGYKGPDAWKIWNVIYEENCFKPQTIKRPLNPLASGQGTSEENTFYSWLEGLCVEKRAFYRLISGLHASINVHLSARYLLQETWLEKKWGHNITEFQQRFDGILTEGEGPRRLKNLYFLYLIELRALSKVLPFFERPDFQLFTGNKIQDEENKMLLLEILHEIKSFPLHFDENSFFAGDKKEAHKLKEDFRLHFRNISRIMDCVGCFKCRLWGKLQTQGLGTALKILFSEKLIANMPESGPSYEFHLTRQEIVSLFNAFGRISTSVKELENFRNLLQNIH

Turning to “PDI, recombinant (wild type) (from UniProt P07237 18-508) (enzyme)”, the dissociation constant Kd came out at 1700 nM.
